Results reported in patent US20030023038A1 (Biogen, published 2003).

Key:
[1] = biological target: T1, human soluble myc-BAFF Q136 (human, UniProt Q9Y275 136-285); experiment: co-transfection in 293T, anti-FLAG (M2) immunoprecipitation of conditioned media, western blot with anti-myc 9E10
T1 construct: also called plasmid #JST556
Text: Plasmids encoding the following human soluble TNF family ligands were constructed with the indicated N-terminal epitope tags beginning at the ligand amino acid residue indicated in a PCR3 based mammalian cell expression vector: FLAG-APRIL, beginning with residue A105 (plasmid #LT033) or H115 (plasmid #LT038), FLAG-TWEAK A106 (plasmid #PS288), myc-APRIL A105 (plasmid #JST557), and myc-BAFF Q136 (plasmid #JST556). […] At 48 hrs. post-transfection, conditioned media was collected and used for immunoprecipitation experiments. The immunoprecipitation samples contained 100 μl of conditioned media, 5 μg/ml of the anti-FLAG antibody M2 (Sigma, St Louis, Miss.) and 900 μl of DMEM containing 10% FCS, glutamine, Pen-Strep, G418 and sodium azide and were incubated at 4° C. for 1 hour, with agitation. Then, 30 μl of ProteinA-Sepharose beads (Amersham Pharmacia, Piscataway, N.J.) was added to the samples and the mixture was incubated overnight at 4° C. with agitation. The beads were collected by centrifugation and then washed one time with the DMEM media described above and then 3 times with PBS. The final pellet containing the beads was then suspended in 2× SDS non-reducing sample buffer and boiled for 5 minutes. […] The filter was again washed 3 times and then detected using ECL reagents (Amersham Pharmacia, Piscataway, N.J.). […]

[2] = biological target: human full length BAFF (construct PS544), found cleaved in the conditioned media (human, UniProt Q9Y275 134-285); experiment: co-transfection in 293T, anti-FLAG (M2) immunoprecipitation of conditioned media, western blot with anti-BAFF 53.14
Description: At 48 hrs. post-transfection, conditioned media was collected and used for immunoprecipitation experiments. The immunoprecipitation samples contained 200 μl of conditioned media, 5 μg/ml of the anti-FLAG antibody M2 (Sigma) and 800 μl of DMEM containing 10% FCS, glutamine, Pen-Strep, G418 and sodium azide and were incubated at 4° C. for 1 hour, with agitation. Then, 30 μl of ProteinA-Sepharose beads (Pharmacia) was added to the samples and the mixture was incubated overnight at 4° C. with agitation. The beads were collected by centrifugation and then washed one time with the DMEM media described above and then 3 times with PBS. The final pellet containing the beads was then suspended in 2× SDS non-reducing sample buffer and boiled for 5 minutes. The beads were spun out and 25 μl of the supernatant was loaded onto 2 separate 4-20% SDS-PAGE gradient gels (Novex). In order to examine the level of ligand expression, non-immunoprecipitated conditioned media from the co-transfected cells were also loaded. These samples were diluted two fold with 2× non-reducing sample buffer, boiled for 2 min. and then 25 μl was loaded into each lane. Each gel contained a set of immunoprecipitations and a set of non-immunoprecipitated conditioned media. […] The filters were again washed 3 times and then detected using ECL reagents (Amersham). […]

T1 sequence (Q9Y275 136-285): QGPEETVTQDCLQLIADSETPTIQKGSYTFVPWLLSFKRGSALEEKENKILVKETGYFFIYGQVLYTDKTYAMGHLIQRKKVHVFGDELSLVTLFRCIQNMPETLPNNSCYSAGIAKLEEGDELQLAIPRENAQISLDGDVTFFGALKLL

- binding result [1]: no binding
- binding result [2]: no binding
B1: soluble FLAG-tagged human TWEAK beginning at A106 (ligand, UniProt O43508 106-249, looked up, not shown: small tags and cut ends)
chain: AIAAHYEVHPRPGQDGAQAGVDGTVSGWEEARINSSSPLRYNRQIGEFIVTRAGLYYLYCQVHFDEGKAVYLKLDLLVDGVLALRCLEEFSATAASSLGPQLRLCQVSGLLALRPGSSLRIRTLPWAHLKAAPFLTYFGLFQVH
notes: also called FLAG-TWEAK A106; plasmid PS288
